Values quoted from earlier work, collected in article PMC3831880.

Target: HPr (Escherichia coli) (UniProt P0AA04)
Experiment: PRE titration

Enzyme I N-terminal domain (EIN) N-terminal domain (from UniProt P08839)
Kd: 7 µM
